Values of other authors in US9163073B2, “Chemically and thermodynamically stable insulin analogues and improved methods for their production” (AMIDEBIO LLC, priority 2013, dated 2015).

Tests used:
[1] = tested on: breast cancer; conditions: in vivo
[2] = after one year in acidic formulations
[3] = biological target: insulin receptor over the IGF-1R (Homo sapiens, UniProt P06213)

Substance	induction of breast cancer [1]	AsnA21 deamidation [2]	selectivity for its own receptor over the IGF-1R [3] [fold]
AspB10 insulin: insulin analogue with AspB10 substitution, relatively high affinity for the IGF-1R	induce breast cancer		
native insulin: native two-chain human insulin (A chain SEQ ID NO 2, B chain SEQ ID NO 3)		20-30%	> 100
